Measurements taken from patent publication US20040115738A1 (INNATE PHARMA, published 2004).

Experiments:
FcεRIγ = biological target: T1, FcεRIγ (UniProt P30273 19-86); test: co-immunoprecipitation (data not shown)
T1 construct: Endogenous protein in NK cell lysates; also called FcεFRIγ (as misprinted)
T1 sequence (looked up): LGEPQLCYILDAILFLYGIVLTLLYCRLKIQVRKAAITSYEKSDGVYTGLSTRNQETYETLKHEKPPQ

DAP12 = biological target: T2, DAP12 (UniProt O43914 22-113); test: co-immunoprecipitation (data not shown)
T2 construct: Endogenous protein in NK cell lysates
T2 sequence (O43914 22-113 limits assumed): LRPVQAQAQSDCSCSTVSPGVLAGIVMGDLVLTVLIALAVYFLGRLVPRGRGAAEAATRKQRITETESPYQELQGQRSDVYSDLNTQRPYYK

B1: NKp80 (receptor)
chain: MQDEERYMTLNVQSKKRSSAQTSCLTFKDYSVTLHWYKILLGISGTVNGILTLTLISLILLVSCGVLLKCQKGSCSNATQYEDTGDLKVNNGTRRNISNKDLCASRSADQTVLCQSEWLKYQGKCYWFSNEMKSWSDSYVYCLERKSHLLIIHDQLEMAFIQKNLRQLNYVWIGLNFTSLKMTWTWVDGSPIDSKIFFIKGPAKENSCAAIKESKIFSETCSSVFKWICQY
notes: 231 aa type II transmembrane protein; On the NK cell surface it is a dimer (80 kD non-reduced, about 40 kD reduced); Tested on human NK cells, in lysates of 125I-labeled NK cells, and on 293T cells transfected with VR1012-ML; also called MA152-reactive molecule; MA152 mAb-reactive molecule
**Q.** Which results are given for B1?
**A.** binding result (FcεRIγ): no binding; binding result (DAP12): no binding
